Results as given in patent US20200199241A1 (Chugai, published 2020).
Residue numbers refer to the chain shown, from its start. Names may count otherwise. Like-named read-outs stand apart in the source and are kept apart here. Each block holds one binder with its values, some of them ahead of it.

Legend:
mouse FcγRIV [1] = molecular target: T1, mouse FcγRIV (mouse, UniProt A0A0B4J1G0 21-203); experiment: SPR (Biacore T100/T200): FcγR injected over the antibody held by human FcRn immobilised on a CM4 chip (simultaneous binding), pH 7.4, 25 C
T1 construct: bought; also called mFcgRIV; mFcgR IV; the vendor's purification tag not given
T1 sequence: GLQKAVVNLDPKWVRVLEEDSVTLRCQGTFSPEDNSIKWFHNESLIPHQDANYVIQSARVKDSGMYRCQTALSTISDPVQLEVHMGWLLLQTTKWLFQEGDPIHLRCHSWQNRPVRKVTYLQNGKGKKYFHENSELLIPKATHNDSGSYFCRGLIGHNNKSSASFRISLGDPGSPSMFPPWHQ

human FcγRIIb = molecular target: T2, human FcγRIIb (human, UniProt P31994 43-217, limits assumed); experiment: as above
T2 construct: also called hFcgRIIb; FcγIIB
T2 sequence: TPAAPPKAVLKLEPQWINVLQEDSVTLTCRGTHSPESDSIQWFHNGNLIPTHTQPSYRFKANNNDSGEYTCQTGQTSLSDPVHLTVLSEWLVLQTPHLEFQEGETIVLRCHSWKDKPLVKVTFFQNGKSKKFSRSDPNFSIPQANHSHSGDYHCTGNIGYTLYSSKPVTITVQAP

human FcγRIa [2] = molecular target: T3, human FcγRIa (human, UniProt P12314 16-292, limits assumed); experiment: as above
T3 construct: also called hFcgRIa; hFcgRI

mouse FcγRI [3] = molecular target: T4, mouse FcγRI (mouse, UniProt P26151 25-297); experiment: as above
T4 construct: bought; also called mFcgRI; mFcgR 1
T4 sequence (looked up): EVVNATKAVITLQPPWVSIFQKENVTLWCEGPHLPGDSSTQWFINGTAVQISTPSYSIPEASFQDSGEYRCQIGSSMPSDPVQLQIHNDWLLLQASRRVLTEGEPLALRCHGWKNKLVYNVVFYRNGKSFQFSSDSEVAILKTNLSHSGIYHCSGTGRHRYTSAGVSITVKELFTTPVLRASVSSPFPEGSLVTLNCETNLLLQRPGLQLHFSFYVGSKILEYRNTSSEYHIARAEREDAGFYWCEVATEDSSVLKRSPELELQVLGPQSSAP

mouse FcγRIII [4] = molecular target: T5, mouse FcγRIII (mouse, UniProt P08508 31-215); experiment: as above
T5 construct: bought; also called mFcgRIII; mFcgR III
T5 sequence (looked up): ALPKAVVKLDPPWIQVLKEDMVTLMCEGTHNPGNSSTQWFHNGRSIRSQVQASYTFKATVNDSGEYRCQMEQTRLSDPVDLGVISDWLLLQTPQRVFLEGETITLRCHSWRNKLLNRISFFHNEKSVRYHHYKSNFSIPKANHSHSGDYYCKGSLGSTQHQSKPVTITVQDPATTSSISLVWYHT

mouse FcγRIIb [5] = molecular target: T6, mouse FcγRIIb (mouse, UniProt P08101 30-207, limits assumed); experiment: as above
T6 construct: bought; also called mFcgRIIb; mFcgR IIb
T6 sequence (looked up): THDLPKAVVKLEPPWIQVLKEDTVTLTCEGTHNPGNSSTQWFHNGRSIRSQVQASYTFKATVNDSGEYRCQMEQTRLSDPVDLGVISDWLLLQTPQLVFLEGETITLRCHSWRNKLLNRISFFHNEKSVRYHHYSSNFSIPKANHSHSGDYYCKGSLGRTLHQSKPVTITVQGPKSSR

mouse FcγRIV [6] = molecular target: T1, mouse FcγRIV; experiment: SPR (Biacore T100/T200): FcγR injected over the antibody held by mouse FcRn immobilised on a CM4 chip (simultaneous binding), pH 7.4, 25 C
mouse FcγRI [7] = molecular target: T4, mouse FcγRI; experiment: as above
mouse FcγRIII [8] = molecular target: T5, mouse FcγRIII; experiment: as above
mouse FcγRIIb [9] = molecular target: T6, mouse FcγRIIb; experiment: as above
[10] = molecular target: T7, human FcRn (soluble human FcRn complexed with β2-microglobulin) (human, UniProt P61769 21-119, limits assumed); experiment: SPR, antibody captured by Protein L, human FcRn as analyte, pH 7.0, 25 C
T7 construct: also called hFcRn

[11] = molecular target: T7, human FcRn (soluble human FcRn …); experiment: as above; remark: listed apart in the source
human FcγRIIa(H) = molecular target: T8, human FcγRIIa(H) (human, UniProt P12318 36-217); experiment: SPR, antibody captured by Protein L, human FcγR as analyte, pH 7.4, 25 C;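 further: biacore T100 or T200 with Protein L amine-coupled on a CM4 chip, FcγRs diluted in ACES saline with polysorbate 20, buffer-only injection as blank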
T8 construct: also called hFcgRIIa(H); FcγRIIa type H
T8 sequence: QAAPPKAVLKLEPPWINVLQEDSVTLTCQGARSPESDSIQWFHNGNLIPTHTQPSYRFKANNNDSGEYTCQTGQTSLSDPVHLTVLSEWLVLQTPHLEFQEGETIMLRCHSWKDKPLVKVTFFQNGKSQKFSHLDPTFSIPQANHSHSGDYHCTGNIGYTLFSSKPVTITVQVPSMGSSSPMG

human FcγRIa [12] = molecular target: T3, human FcγRIa; experiment: as above
human FcγRIIa(R) = molecular target: T9, human FcγRIIa(R) (human, UniProt P12318 36-217); experiment: as above
T9 construct: also called hFcgRIIa(R); FcγRIIa type R
T9 chain: T8 sequence with H133R

human FcγRIIIa(V) = molecular target: T10, human FcγRIIIa(V) (human, UniProt P08637 17-208, limits assumed); experiment: as above
T10 construct: also called hFcgRIIIa(V); allotype V158

mouse FcγRIV [13] = molecular target: T1, mouse FcγRIV; experiment: SPR, antibody captured by Protein L, mouse FcγR as analyte, pH 7.4, 25 C; set-up: unit not given here
mouse FcγRIII [14] = molecular target: T5, mouse FcγRIII; experiment: as above; set-up: unit not given here
mouse FcγRIIb [15] = molecular target: T6, mouse FcγRIIb; experiment: as above; set-up: unit not given here

T3 sequence (P12314 16-292 limits assumed): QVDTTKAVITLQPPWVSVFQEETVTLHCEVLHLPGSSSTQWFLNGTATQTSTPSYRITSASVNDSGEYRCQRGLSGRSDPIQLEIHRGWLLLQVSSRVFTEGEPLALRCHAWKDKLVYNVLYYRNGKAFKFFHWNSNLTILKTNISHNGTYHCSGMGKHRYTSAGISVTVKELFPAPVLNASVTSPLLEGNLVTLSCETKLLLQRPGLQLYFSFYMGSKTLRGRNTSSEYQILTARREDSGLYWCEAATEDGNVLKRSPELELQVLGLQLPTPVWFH
T10 sequence (P08637 other isoform, or with tags, fused parts or gaps limits assumed): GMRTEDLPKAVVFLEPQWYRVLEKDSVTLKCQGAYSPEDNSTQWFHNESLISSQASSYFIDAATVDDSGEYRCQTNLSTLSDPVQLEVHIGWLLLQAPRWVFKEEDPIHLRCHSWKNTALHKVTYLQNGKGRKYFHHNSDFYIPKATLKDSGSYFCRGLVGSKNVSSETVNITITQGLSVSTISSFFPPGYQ

binding result (mouse FcγRIV [1]): binds | binding result (human FcγRIIb): binds | binding result (human FcγRIa [2]): binds | binding result (mouse FcγRI [3]): binds | binding result (mouse FcγRIII [4]): binds | binding result (mouse FcγRIIb [5]): binds
B1: Fv4-IgG1-F157 (VH3-IgG1-F157 and VL3-CK) (antibody)
heavy: QVQLQESGPGLVKPSETLSLTCAVSGHSISHDHAWSWVRQPPGEGLEWIGFISYSGITNYNPSLQGRVTISRDNSKNTLYLQMNSLRAEDTAVYYCARSLARTTAMDYWGEGTLVTVSSASTKGPSVFPLAPSSKSTSGGTAALGCLVKDYFPEPVTVSWNSGALTSGVHTFPAVLQSSGLYSLSSVVTVPSSSLGTQTYICNVNHKPSNTKVDKKVEPKSCDKTHTCPPCPAPELLGGPSVFLFPPKPKDTLMISRTAEVTCVVVDVSHEDPEVKFNWYVDGVEVHNAKTKPREEQYNSTYRVVSVLTPLHQDWLNGKEYKCKVSNKALPAPIEKTISKAKGQPREPQVYTLPPSRDELTKNQVSLTCLVKGFYPSDIAVEWESNGQPENNYKTTPPVLDSDGSFFLYSKLTVDKSRWQQGNVFSCSVLHEALHYHYTQKSLSLSP
light: DIQMTQSPSSLSASVGDSVTITCQASTDISSHLNWYQQKPGKAPELLIYYGSHLLSGVPSRFSGSGSGTDFTFTISSLEAEDAATYYCGQGNRLPYTFGQGTKVEIERTVAAPSVFIFPPSDEQLKSGTASVVCLLNNFYPREAKVQWKVDNALQSGNSQESVTEQDSKDSTYSLSSTLTLSKADYEKHKVYACEVTHQGLSSPVTKSFNRGEC
notes: copies: 2 + 2

binding result (mouse FcγRIV [6]): binds | binding result (mouse FcγRI [7]): binds | binding result (mouse FcγRIII [8]): binds | binding result (mouse FcγRIIb [9]): binds
B2: Fv4-IgG1-F20 (VH3-IgG1-F20 and VL3-CK) (antibody)
heavy: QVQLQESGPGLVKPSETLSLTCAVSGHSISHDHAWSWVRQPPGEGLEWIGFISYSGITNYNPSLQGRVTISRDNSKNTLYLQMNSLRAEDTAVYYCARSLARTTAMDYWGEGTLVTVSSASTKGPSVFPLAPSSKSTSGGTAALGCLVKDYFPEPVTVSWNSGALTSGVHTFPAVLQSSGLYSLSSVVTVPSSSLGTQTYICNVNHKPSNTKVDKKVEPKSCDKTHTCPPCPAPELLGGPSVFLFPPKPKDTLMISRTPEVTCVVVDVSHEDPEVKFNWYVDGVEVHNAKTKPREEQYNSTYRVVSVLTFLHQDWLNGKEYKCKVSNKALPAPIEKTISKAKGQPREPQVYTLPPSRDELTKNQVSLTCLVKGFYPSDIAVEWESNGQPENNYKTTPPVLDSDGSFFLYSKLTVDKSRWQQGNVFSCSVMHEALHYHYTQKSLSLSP
light: B1 light
notes: copies: 2 + 2

Kd [10]: 11 nM | Kd [11]: 11 nM | BINDING AMOUNT (RU) (human FcγRIIa(H)): 11.4 RU | BINDING AMOUNT (RU) (human FcγRIa [12]): 265 RU | BINDING AMOUNT (RU) (human FcγRIIa(R)): 11.7 RU | BINDING AMOUNT (RU) (human FcγRIIIa(V)): 61.6 RU | binding amount (mouse FcγRIV [13]): 85.6 | binding amount (mouse FcγRIII [14]): 532 | binding amount (mouse FcγRIIb [15]): 19.2
B3: antibody with VH3-IgG1-F1326 heavy chain and L(WT)-CK light chain (antibody)
heavy: B1 heavy with L236A, L237A, T252V, M254Y, A259P, T309Q, Q313A, L430M, Y438V
light: not shown
notes: L234A/L235A/T250V/M252Y/T307Q/V308P/Q311A/N434Y/Y436V; copies: 2 + 2
